The record followed here is the Immune Epitope Database (IEDB).

Assay [1] addresses HLA-A*26:01. Kind of assay: IEDB peptide-MHC binding, purified MHC/competitive/radioactivity; filed as Kd, often an IC50 or EC50 that approximates it; ≥ and ≤ were set here for values at or beyond the usual limits of such assays.
The target in a further assay is HLA-A*24:02. The assay is described as above.
The target in another assay is HLA-A*30:02. The assay is described as above.
Another assay addresses HLA-A*23:01. The assay is described as above.
The target in the next assay is HLA-A*01:01. The assay is described as above.
The next assay deals with HLA-A*29:02. The description is as above.
The next assay concerns the target HLA-B*40:01. Kind of assay: IEDB peptide-MHC binding, purified MHC/direct/fluorescence; filed as Kd, often an IC50 or EC50 that approximates it; ≥ and ≤ were set here for values at or beyond the usual limits of such assays. To be noted: source organism: Mycobacterium tuberculosis.
In the next assay the target is HLA-B*15:01. The description is as above.
A further assay has as its target HLA-A*02:02. Kind of assay: IEDB peptide-MHC binding, purified MHC/competitive/radioactivity; filed as Kd, often an IC50 or EC50 that approximates it; ≥ and ≤ were set here for values at or beyond the usual limits of such assays.
The target in a further assay is HLA-A*02:06. The assay is described as above.
The target in the next assay is HLA-A*02:03. Described as above.
In the next assay the target is HLA-A*02:01. Kind of assay: IEDB peptide-MHC binding, purified MHC/competitive/fluorescence; filed as Kd, often an IC50 or EC50 that approximates it; ≥ and ≤ were set here for values at or beyond the usual limits of such assays.
A further assay addresses HLA-B*44:03. Kind of assay: IEDB peptide-MHC binding, purified MHC/competitive/radioactivity; filed as Kd, often an IC50 or EC50 that approximates it; ≥ and ≤ were set here for values at or beyond the usual limits of such assays. The conditions noted are these: source organism: Dengue virus 1 Brazil/97-11/1997.
The next assay has as its target HLA-A*31:01. Kind of assay: IEDB peptide-MHC binding, purified MHC/direct/fluorescence; filed as Kd, often an IC50 or EC50 that approximates it; ≥ and ≤ were set here for values at or beyond the usual limits of such assays.
A further assay addresses HLA-A*33:01. Kind of assay: IEDB peptide-MHC binding, purified MHC/competitive/radioactivity; filed as Kd, often an IC50 or EC50 that approximates it; ≥ and ≤ were set here for values at or beyond the usual limits of such assays. To be noted: source organism: SARS coronavirus Tor2.
For the next assay, the target named is HLA-A*68:01. The assay is described as above. To be noted: source organism: SARS coronavirus Tor2.
Assay [2] addresses HLA-A*26:01. Kind of assay: IEDB peptide-MHC binding, purified MHC/direct/fluorescence; filed as Kd, often an IC50 or EC50 that approximates it; ≥ and ≤ were set here for values at or beyond the usual limits of such assays. To be noted: source organism: SARS-CoV1.
For the next assay, the target named is HLA-B*27:05. Described as above. The conditions noted are these: source organism: SARS-CoV1.
Another assay deals with HLA-A*11:01. Described as above. The conditions noted are these: source organism: SARS-CoV1.
The next assay has as its target HLA-A*03:01. Described as above. To be noted: source organism: Cryptosporidium parvum.
[3] abbreviates: source organism: SARS coronavirus Tor2.
[4] abbreviates: source organism: Mammarenavirus machupoense.
The mark [5] stands for this setting: source organism: Vaccinia virus WR.
Where [6] appears, read: source organism: Triticum aestivum.

On to MSFLEKDAPY, for which the equilibrium dissociation constant (Kd) with HLA-A*26:01 [1] (setting [3]) was 262 nM; with HLA-A*24:02 (setting [3]), at least 70300 nM; in the assay with HLA-A*30:02 (setting [3]) it was 3.07 nM; in the assay with HLA-A*23:01 (setting [3]), at least 70000 nM; with HLA-A*01:01 (setting [3]), 64.4 nM; with HLA-A*29:02 (setting [3]), 224 nM.

For the sequence LEEIGILLL, in the assay with HLA-B*40:01, the Kd amounted to 11 nM.

TLAAAANSY: the equilibrium dissociation constant (Kd) with HLA-B*15:01 (source organism: Mycobacterium tuberculosis C) was 571 nM.

Turning to LCMLNNSFYY, the dissociation constant (Kd) in the assay with HLA-A*26:01 [1] (setting [4]) is at least 69700 nM; in the assay with HLA-A*24:02 (setting [4]), at least 47800 nM; with HLA-A*30:02 (setting [4]), 11.7 nM; with HLA-A*23:01 (setting [4]) it was at least 29300 nM; with HLA-A*01:01 (setting [4]) it was 612 nM; with HLA-A*29:02 (setting [4]), 5.43 nM.

Turning to YSELRPDTRY, the Kd in the assay with HLA-A*26:01 [1] (setting [3]) is 12000 nM; with HLA-A*24:02 (setting [3]), at least 36000 nM; with HLA-A*30:02 (setting [3]) it was 165 nM; with HLA-A*23:01 (setting [3]) it was at least 70000 nM; with HLA-A*01:01 (setting [3]) it was 6.22 nM; in the assay with HLA-A*29:02 (setting [3]) it was 140 nM.

In the case of AMHDKKIDIL, the dissociation constant Kd is 387 nM in the assay with HLA-A*02:02 (setting [5]), at least 69800 nM with HLA-A*02:06 (setting [5]), 1180 nM in the assay with HLA-A*02:03 (setting [5]) and 222 nM with HLA-A*02:01 (source organism: Variola major virus).

As for SYATHHDKF, the Kd in the assay with HLA-A*26:01 [1] (setting [3]) was at least 77900 nM; with HLA-A*24:02 (setting [3]), at least 105000 nM; in the assay with HLA-A*30:02 (setting [3]), at least 85700 nM; in the assay with HLA-A*23:01 (setting [3]) it was at least 90700 nM; with HLA-A*01:01 (setting [3]), at least 39600 nM; with HLA-A*29:02 (setting [3]) it was at least 22600 nM.

With RETACLGKSY, the Kd with HLA-B*44:03 came to 70.3 nM.

Turning to VTFQGKFKK, the Kd in the assay with HLA-A*31:01 (source organism: SARS-CoV1) was 70.3 nM; with HLA-A*33:01 it was 8580 nM; with HLA-A*68:01 it was 13.3 nM.

In the case of KLGIGNSPV, the Kd with HLA-A*02:01 (source organism: Vaccinia virus Copenhagen) stood at 6 nM.

Consider TLMNVITLV, for which the Kd with HLA-A*26:01 [2] was 1120 nM; in the assay with HLA-B*27:05, 10100 nM; in the assay with HLA-B*15:01 (source organism: SARS-CoV1) it was 6120 nM; with HLA-A*11:01 it was at least 26900 nM; with HLA-A*02:02 (setting [3]), 0.34 nM; in the assay with HLA-A*02:06 (setting [3]), 0.697 nM. Further, the equilibrium dissociation constant (Kd) with HLA-A*02:03 (setting [3]) came out at 0.251 nM.

On to QYPSGQGSF, for which the Kd in the assay with HLA-A*26:01 [1] (setting [6]) was at least 49300 nM; with HLA-A*24:02 (setting [6]) it was 3390 nM; with HLA-A*30:02 (setting [6]), 1.17 nM; with HLA-A*23:01 (setting [6]), at least 35700 nM; with HLA-A*01:01 (setting [6]) it was at least 61500 nM; in the assay with HLA-A*29:02 (setting [6]), 175 nM.

For MIRTWRQNK, the dissociation constant (Kd) in the assay with HLA-A*03:01 came to 226 nM; with HLA-A*31:01 (source organism: Cryptosporidium parvum), 364 nM.

For QYIKWPWYVW, the Kd with HLA-A*26:01 [1] (setting [3]) is at least 69700 nM; with HLA-A*24:02 (setting [3]), 2.48 nM; with HLA-A*30:02 (setting [3]), 10600 nM; in the assay with HLA-A*23:01 (setting [3]) it was 0.784 nM; with HLA-A*01:01 (setting [3]) it was at least 32000 nM; in the assay with HLA-A*29:02 (setting [3]) it was 3880 nM.

FIAQSKGLY: the Kd is 88.4 nM with HLA-A*26:01 [1] (setting [3]); at least 77600 nM with HLA-A*24:02 (setting [3]); 24.5 nM in the assay with HLA-A*30:02 (setting [3]); at least 77800 nM with HLA-A*23:01 (setting [3]); 465 nM with HLA-A*01:01 (setting [3]); 4.94 nM in the assay with HLA-A*29:02 (setting [3]).

Broadly, the Kd is the concentration at which binding is half-saturated.
